Laboratory results as given in patent US20120039810, “APTAMER-CONTAINING COMPOSITIONS AND METHODS FOR TARGETING E-SELECTIN” (published 2012).

Assays:
[1] = molecular target: T1, E-selectin on ES-Endo cells (Tet-on HMVEC) (UniProt P16581 P16581:22-610); assay: cell_activity; inhibition of HL-60 adhesion to ES-Endo, 4 C; 80% at 100 nM
T1 sequence: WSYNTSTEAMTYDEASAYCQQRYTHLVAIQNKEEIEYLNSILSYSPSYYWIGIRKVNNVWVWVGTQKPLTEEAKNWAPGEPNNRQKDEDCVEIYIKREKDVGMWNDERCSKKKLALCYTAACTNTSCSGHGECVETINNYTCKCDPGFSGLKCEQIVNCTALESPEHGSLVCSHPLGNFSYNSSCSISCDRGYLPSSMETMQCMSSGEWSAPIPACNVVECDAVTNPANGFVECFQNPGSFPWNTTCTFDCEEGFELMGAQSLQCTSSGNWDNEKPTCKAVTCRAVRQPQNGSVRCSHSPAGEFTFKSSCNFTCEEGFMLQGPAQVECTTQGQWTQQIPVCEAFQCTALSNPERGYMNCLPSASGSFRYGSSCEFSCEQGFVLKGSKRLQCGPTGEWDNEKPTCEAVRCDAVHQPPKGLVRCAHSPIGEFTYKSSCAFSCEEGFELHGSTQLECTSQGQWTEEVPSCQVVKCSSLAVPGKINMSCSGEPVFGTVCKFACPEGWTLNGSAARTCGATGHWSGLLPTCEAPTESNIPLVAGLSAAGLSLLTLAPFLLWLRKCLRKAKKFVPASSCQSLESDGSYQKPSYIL
Experimental: On the basis of specific binding of ESTA-1 to E-selectin, a study was done to determine the effect of ESTA-1 on adhesion of sLe^X positive cells to endothelial cells. Confluent E-selectin expressing ES-Endo cells were incubated with doxycycline for 5 hours followed by ESTA-1 (50 nM, 100 nM) for 20 minutes. HL-60 cells a human promyelomonocytic cell line, or cells from two breast cancer cell lines (MDA-MB-231 and MDA-MB-468: 10^5 cells) suspended in RPMI containing 1% FBS were added to ES-Endo and incubated at 4° C. for 30 minutes with mild agitation. The unbound cells were washed off with RPMI containing 1% FBS. The number of cells that adhered to the ES-Endo was counted on at least 3 random areas using a light microscope (final magnification 100×) and expressed as the mean of triplicate experiments. […] HL-60 cell adhesion to ES-Endo increased by 5-fold when E-selectin expression was induced by doxycycline (FIG. 12A). Pretreatment of the E-selectin expressing ES-Endo with ESTA-1 inhibited HL-60 adhesion by 80% at 100 nM ESTA-1 (FIG. 12A). […] Lastly, we tested cytotoxicity associated with ESTA-1 treatment in ES-Endo cells. ES-Endo cells were first incubated with doxycycline for 5 hours and then with increasing concentration of ESTA-1 (up to 200 nM) for 48 hours. MTT assay was performed to test cell viability.

[2] = molecular target: P-selectin (Homo sapiens, UniProt P16109 P16109:42-771); assay: EMSA; estimated; PBS with Ca2+ and Mg2+, 5 mM MgCl2, 1% NP40
Experimental: Equal amounts of ESTA-1 (4.6 pmoles) were incubated with increasing concentrations of the recombinant selectin proteins (0-19 pmoles) in a total volume of 10.5 μl of PBS supplemented with Ca2+ and Mg2+, 5 mM MgCl2, and 1% NP40 at room temperature for 45 minutes. The reaction mixtures were loaded onto 6% polyacrylamide tris borate gels and run at 100 V for 90 minutes at 4° C. The gel was stained with SYBR Gold nucleic acid staining dye and visualized using the Fluor Chem 8800 chemimager (Alpha Innotech). Protein-bound TA and unbound TA were quantified using ImageJ software. The binding curves were generated assuming a single binding site curve fits using the Graph Pad Prism software.
To evaluate the binding affinity of ESTA-1 to all selectins, an electrophoretic mobility shift assay (EMSA) was utilized. To determine the binding constant, fixed amounts of ESTA-1 was mixed with increasing amounts of recombinant protein (E-, P-, and L-selectin). ESTA-1 (4.6 pmoles) and recombinant human selectin protein (up to 19 pmoles) were incubated and subjected to electrophoresis at 4° C. The gels were stained with SYBR Gold nucleic acid stain and densitometric analysis of the unbound ESTA-1 was plotted using E-selectin or P-selectin recombinant protein. […] Based on the densitometric analysis, the binding constant calculated for the ESTA-1 binding to E-selectin was 47 nM (FIG. 11A). […]

[3] = molecular target: T2, L-selectin (Homo sapiens, UniProt P14151 P14151:39-332); assay: EMSA; binding not detectable under the same conditions
T2 sequence: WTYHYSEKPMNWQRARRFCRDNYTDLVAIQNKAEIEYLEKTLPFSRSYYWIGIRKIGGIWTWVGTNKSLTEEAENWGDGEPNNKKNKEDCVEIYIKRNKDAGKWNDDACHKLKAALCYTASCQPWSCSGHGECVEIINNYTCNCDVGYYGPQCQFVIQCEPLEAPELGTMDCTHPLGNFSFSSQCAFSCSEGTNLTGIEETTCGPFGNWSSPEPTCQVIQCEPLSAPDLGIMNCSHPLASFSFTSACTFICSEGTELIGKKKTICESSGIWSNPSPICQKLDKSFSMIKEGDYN
Excerpt: Protein-bound TA and unbound TA were quantified using ImageJ software. The binding curves were generated assuming a single binding site curve fits using the Graph Pad Prism software.
To evaluate the binding affinity of ESTA-1 to all selectins, an electrophoretic mobility shift assay (EMSA) was utilized. To determine the binding constant, fixed amounts of ESTA-1 was mixed with increasing amounts of recombinant protein (E-, P-, and L-selectin). ESTA-1 (4.6 pmoles) and recombinant human selectin protein (up to 19 pmoles) were incubated and subjected to electrophoresis at 4° C. The gels were stained with SYBR Gold nucleic acid stain and densitometric analysis of the unbound ESTA-1 was plotted using E-selectin or P-selectin recombinant protein. […] As expected, the amounts of ESTA-1/E-selectin complexes reached saturation at a molar ratio of 1:1, when both of the binding molecules are at a concentration of 500 nM. Based on the densitometric analysis, the binding constant calculated for the ESTA-1 binding to E-selectin was 47 nM (FIG. 11A). […] ESTA-1 binding to L-selectin was not detectable under the same conditions. […] To further validate the binding affinity of ESTA-1 under biological conditions, different concentrations of ESTA-1 (50-200 nM) were incubated with ES-Endo cells induced with doxycycline. […] ESTA-1 binding was analyzed by fluorescent imaging.

P-selectin, sequence (P16109 42-771, one chain of several): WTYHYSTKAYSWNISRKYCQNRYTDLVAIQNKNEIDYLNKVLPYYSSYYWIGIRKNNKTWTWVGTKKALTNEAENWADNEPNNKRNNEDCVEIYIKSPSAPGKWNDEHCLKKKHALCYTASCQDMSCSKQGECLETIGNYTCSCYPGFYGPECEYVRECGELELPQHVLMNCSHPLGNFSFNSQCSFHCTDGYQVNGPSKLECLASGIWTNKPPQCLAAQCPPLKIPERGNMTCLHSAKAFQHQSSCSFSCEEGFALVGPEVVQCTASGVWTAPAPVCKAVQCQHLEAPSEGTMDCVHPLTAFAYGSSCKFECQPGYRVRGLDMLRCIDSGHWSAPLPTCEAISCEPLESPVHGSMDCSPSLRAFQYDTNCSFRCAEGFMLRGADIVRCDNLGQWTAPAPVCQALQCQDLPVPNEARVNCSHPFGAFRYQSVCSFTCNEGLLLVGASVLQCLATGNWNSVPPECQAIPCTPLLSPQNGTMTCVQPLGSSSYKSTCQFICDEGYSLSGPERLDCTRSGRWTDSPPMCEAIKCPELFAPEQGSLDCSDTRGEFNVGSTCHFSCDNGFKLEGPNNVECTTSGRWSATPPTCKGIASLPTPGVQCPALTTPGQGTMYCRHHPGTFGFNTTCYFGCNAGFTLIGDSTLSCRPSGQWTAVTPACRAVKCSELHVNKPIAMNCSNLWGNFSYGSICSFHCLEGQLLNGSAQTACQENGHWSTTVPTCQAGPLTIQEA

B1: ESTA-1 (TA-1) (ssDNA)
DNA: CGCTCGGATCGATAAGCTTCGATCCCACTCTCCCGTTCACTTCTCCTCACGTCACGGATCCTCTAGAGCACTG
modifications: 5'-monothiophosphate (Rp) on all dA except in primer-binding region
IC50 [1]: ~63 nM
Kd [2]: ~13 µM
binding result [3]: no binding
